In article PMC3518660 (Journal of immunology (Baltimore, Md. : 1950), 2012):
Numbering of substitutions follows the chain as printed. Names may count otherwise. Like-named read-outs stand apart in the source and are kept apart here.

B1: chemokine domain of fractalkine (FKN-CD), wild type, 6His-tagged (domain or fragment, human)
chain: QHHGVTKCNITCSKMTSKIPVALLIHYQQNQASCGKRAIILETRQHRLFCADPKEQWVKDAMQHLDRQAAALTRNG
B2: FKN-CD Lys54/Lys59 to Ala mutant (K54A/K59A) (domain or fragment, human)
chain: B1 chain with K54A, K59A
B3: FKN-CD Arg47 to Ala mutant (R47A) (domain or fragment, human)
chain: B1 chain with R47A
B4: FKN-CD Lys54 to Ala mutant (K54A) (domain or fragment, human)
chain: B1 chain with K54A

Key:
[1] = target: T1, recombinant soluble integrin αvβ3 (UniProt P06756 31-987; P05106 27-718); experiment: SPR
T1 sequence (P06756 31-987, chain 1 of 2): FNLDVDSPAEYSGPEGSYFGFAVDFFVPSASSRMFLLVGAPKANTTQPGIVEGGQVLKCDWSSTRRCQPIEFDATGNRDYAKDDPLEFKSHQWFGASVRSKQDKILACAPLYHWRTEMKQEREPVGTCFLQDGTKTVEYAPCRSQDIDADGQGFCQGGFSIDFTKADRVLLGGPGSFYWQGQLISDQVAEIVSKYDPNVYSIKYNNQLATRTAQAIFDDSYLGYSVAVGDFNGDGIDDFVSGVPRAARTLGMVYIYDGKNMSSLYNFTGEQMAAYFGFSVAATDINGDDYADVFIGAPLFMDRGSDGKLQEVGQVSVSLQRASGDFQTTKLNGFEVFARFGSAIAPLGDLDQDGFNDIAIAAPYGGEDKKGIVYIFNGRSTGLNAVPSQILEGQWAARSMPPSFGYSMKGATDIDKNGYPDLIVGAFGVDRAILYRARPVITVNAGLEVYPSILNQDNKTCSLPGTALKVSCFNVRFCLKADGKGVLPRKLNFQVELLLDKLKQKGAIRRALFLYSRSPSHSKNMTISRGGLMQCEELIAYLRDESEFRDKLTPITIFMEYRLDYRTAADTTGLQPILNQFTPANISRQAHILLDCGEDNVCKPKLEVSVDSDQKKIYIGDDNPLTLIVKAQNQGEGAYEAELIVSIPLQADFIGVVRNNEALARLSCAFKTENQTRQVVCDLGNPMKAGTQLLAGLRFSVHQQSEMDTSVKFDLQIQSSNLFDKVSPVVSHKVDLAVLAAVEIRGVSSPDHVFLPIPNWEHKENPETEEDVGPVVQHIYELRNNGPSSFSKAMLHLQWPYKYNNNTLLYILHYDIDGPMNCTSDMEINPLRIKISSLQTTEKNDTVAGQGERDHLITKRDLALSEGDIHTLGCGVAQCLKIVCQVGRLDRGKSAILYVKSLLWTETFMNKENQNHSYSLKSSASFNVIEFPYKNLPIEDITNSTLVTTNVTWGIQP
T1 sequence (P05106 27-718, chain 2 of 2): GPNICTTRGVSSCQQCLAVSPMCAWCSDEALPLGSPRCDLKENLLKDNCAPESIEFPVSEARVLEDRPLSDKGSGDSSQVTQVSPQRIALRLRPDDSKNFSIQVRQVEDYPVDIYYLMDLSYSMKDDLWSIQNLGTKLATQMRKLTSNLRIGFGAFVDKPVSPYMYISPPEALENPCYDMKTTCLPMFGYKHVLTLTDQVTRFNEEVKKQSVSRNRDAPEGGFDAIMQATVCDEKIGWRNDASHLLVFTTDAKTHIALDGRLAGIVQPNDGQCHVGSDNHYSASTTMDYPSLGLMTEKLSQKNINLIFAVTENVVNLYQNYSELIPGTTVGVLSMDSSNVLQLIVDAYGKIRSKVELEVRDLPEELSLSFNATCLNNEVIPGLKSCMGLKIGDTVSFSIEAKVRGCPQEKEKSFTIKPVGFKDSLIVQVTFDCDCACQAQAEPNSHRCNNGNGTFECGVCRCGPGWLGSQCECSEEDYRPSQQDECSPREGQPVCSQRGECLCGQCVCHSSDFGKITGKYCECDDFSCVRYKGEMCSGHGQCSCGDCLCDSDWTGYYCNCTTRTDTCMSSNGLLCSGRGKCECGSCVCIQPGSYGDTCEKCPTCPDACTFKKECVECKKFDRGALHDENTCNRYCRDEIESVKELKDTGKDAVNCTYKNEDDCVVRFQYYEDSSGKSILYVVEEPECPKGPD

[2] = target: T1, recombinant soluble integrin αvβ3; experiment: SPR; remark: listed apart in the source
[3] = target: T1, recombinant soluble integrin αvβ3; experiment: ELISA

Binder	Kd [1]	Kd [2]	binding result [3]
B1	11 nM	6.9 nM	
B2			binds
B3			binds
B4			binds
